This passage reports Km results from article PMC5095700.

Substrate in the data set: N[C@@H]1[C@@H](O)[C@H](O)[C@@H](CO)O[C@H]1O
In words: purified protein. The class given is biochemical, Clostridium acetobutylicum. Particulars: CoA C-terminal domain active site, Trp […], Glu […], Asp […].

As a reminder, the Km is the concentration of substrate that gives half-maximal velocity.

B1: Glucosamine/glucosaminide N-acetyltransferase (GlmA) (Clostridium acetobutylicum ATCC 824) (protein)
chain: MEIKETYDFSSIVDLWNKNIGTVYPMNLELFKQNYINDRQRKKIMGAFNGEILIGFVIYKQWTYKSGSLKPNHKIGYINSIIVDINFRHQGIGTKLLDAAEEELINSGVKILRCGSDTYHFFPGIPLECLPSEEFFLVRGYKMQDYFYDLIGDVSKVDFKKPSIKDGFKVNVMKPEDRKGLFEFLEKSFSGRWLEEFIEFFQVGMKERDIVLIKYKTSVIGFSHIYDNKSSFIGPPIYWKALLGHNYGGLGPIGIDKTYRKQGLGRLLLYESLQILKKREVKKMVIDWTEKDIINFYGRFNFMPWKAYRKATKEVKDGKG
For the protein B1, the Km is 210 ± 20 µM.
